The values that follow come from patent publication US7118879.

Like-named read-outs stand apart in the source and are kept apart here.

The target in assay [1] is human neutrophil elastase (immobilized on Reacti-Gel agarose beads, or free) (human) (UniProt P08246). The experiment in a line: pH elution of phage from HNE beads.
Assay [2] has as its target anhydro-trypsin (agarose-immobilized) (UniProt P00760). The assay is described as follows: 5 µl immobilized anhydro-trypsin, dot blot.
For assay [3] the target is unchanged. The experiment in a line: anhydrotrypsin beads, experiment 2.
The target is the same in assay [4]. The experiment in a line: 10 µl immobilized anhydro-trypsin slurry, 1 h.
The target is the same in assay [5]. The experiment in a line: 5 µl immobilized anhydro-trypsin slurry, 2 h.
Assay [6] deals with trypsin (active, immobilized on beads, or in solution) (UniProt P00760). The assay is described as follows: trypsin beads.
Assay [7] deals with anhydro-trypsin (agarose-immobilized) (UniProt P00760). The experiment in a line: 10 µl immobilized anhydro-trypsin, dot blot.
Assay [8] concerns the target human neutrophil elastase (immobilized on Reacti-Gel agarose beads, or free) (human) (UniProt P08246). The experiment in a line: HNE beads, sum of pH washes.
For assay [9] the target is unchanged. The assay is described as follows: acid-eluted from HNE beads.
The target in assay [10] is trypsin (active, immobilized on beads, or in solution) (UniProt P00760). The experiment in a line: acid-eluted from trypsin beads.
For assay [11], the target named is anhydro-trypsin (agarose-immobilized) (UniProt P00760). The assay is described as follows: 10 µl immobilized anhydro-trypsin slurry, 2 h.
The target is the same in assay [12]. The experiment in a line: 2 µl immobilized anhydro-trypsin, dot blot.
The target in assay [13] is human neutrophil elastase (immobilized on Reacti-Gel agarose beads, or free) (human) (UniProt P08246). The experiment in a line: HNE beads, pH 7.0 wash.
The target is the same in assay [14]. The assay is described as follows: HNE beads, pH 4.0 wash.
Assay [15] has as its target trypsin (active, immobilized on beads, or in solution) (UniProt P00760). The assay is described as follows: trypsin beads. The source holds these as a separate data set.
Assay [16] concerns the target human neutrophil elastase (immobilized on Reacti-Gel agarose beads, or free) (human) (UniProt P08246). The assay is described as follows: HNE beads, pH 2.2 elution.
Assay [17] deals with anhydro-trypsin (agarose-immobilized) (UniProt P00760). The assay is described as follows: anhydrotrypsin beads.
Assay [18] deals with trypsin (active, immobilized on beads, or in solution) (UniProt P00760). The experiment in a line: eluted from trypsin beads.
Assay [19] concerns the target anhydro-trypsin (agarose-immobilized) (UniProt P00760). The assay is described as follows: eluted from anhydrotrypsin beads.
The target of assay [20] is human neutrophil elastase (immobilized on Reacti-Gel agarose beads, or free) (human) (UniProt P08246). The assay is described as follows: HNE beads.
The target in assay [21] is protein A (agarose beads) (UniProt P38507). The assay is described as follows: titer after protein A beads alone; batch 5.
Assay [22] addresses anhydro-trypsin (agarose-immobilized) (UniProt P00760). The assay is described as follows: acid-eluted from anhydrotrypsin beads, experiment 1.
Assay [23] has as its target streptavidin (agarose-immobilized) (UniProt P22629). The assay is described as follows: titer after streptavidin beads.
In assay [24] the target is anhydro-trypsin (agarose-immobilized) (UniProt P00760). The experiment in a line: anhydrotrypsin beads, experiment 1.
Assay [25] shares this target. The experiment in a line: titer after anhydrotrypsin beads.
In assay [26] the target is human Cathepsin G (immobilized on agarose beads) (human) (UniProt P08311). The experiment in a line: Cat-G beads, pH 7.0 eluate.
The target is the same in assay [27]. The assay is described as follows: Cat-G beads, pH 2.5 eluate.
The target is the same in assay [28]. The assay is described as follows: Cat-G beads, pH 3.0 eluate.
The target is the same in assay [29]. The assay is described as follows: Cat-G beads, pH 6.0 eluate.
Assay [30] has the same target. The assay is described as follows: Cat-G beads, pH 2.0 eluate.
For assay [31] the target is unchanged. The assay is described as follows: Cat-G beads, pH 5.0 eluate.
Assay [32] shares this target. The assay is described as follows: Cat-G beads, all pH eluates.
Assay [33] shares this target. The assay is described as follows: Cat-G beads, pH 5.5 eluate.
The target is the same in assay [34]. The experiment in a line: Cat-G beads, pH 3.5 eluate.
For assay [35] the target is unchanged. The experiment in a line: Cat-G beads, final TBS-TWEEN wash.
The target is the same in assay [36]. The experiment in a line: Cat-G beads, pH 4.0 eluate.
The target is the same in assay [37]. The assay is described as follows: Cat-G beads, pH 4.5 eluate.
Assay [38] concerns the target anhydro-trypsin (agarose-immobilized) (UniProt P00760). The assay is described as follows: 2 µl immobilized anhydro-trypsin slurry, 1 h.
For assay [39], the target named is trypsin (active, immobilized on beads, or in solution) (UniProt P00760). The experiment in a line: trypsin beads, CBS pH 6.5, pH 2.2 elution.
Assay [40] has as its target anhydro-trypsin (agarose-immobilized) (UniProt P00760). The assay is described as follows: 5 µl immobilized anhydro-trypsin slurry, 4 h.
Assay [41] deals with streptavidin (agarose-immobilized) (UniProt P22629). The assay is described as follows: 5 µl immobilized streptavidin slurry, 2 h.
Assay [42] deals with anhydro-trypsin (agarose-immobilized) (UniProt P00760). The experiment in a line: 10 µl immobilized anhydro-trypsin slurry, 4 h.
Assay [43] has the same target. The experiment in a line: 5 µl immobilized anhydro-trypsin slurry, 1 h.
For assay [44] the target is unchanged. The assay is described as follows: 2 µl immobilized anhydro-trypsin slurry, 4 h.
Assay [45] deals with streptavidin (agarose-immobilized) (UniProt P22629). The experiment in a line: 5 µl immobilized streptavidin slurry, 4 h.
In assay [46] the target is anhydro-trypsin (agarose-immobilized) (UniProt P00760). The experiment in a line: 2 µl immobilized anhydro-trypsin slurry, 2 h.
In assay [47] the target is streptavidin (agarose-immobilized) (UniProt P22629). The experiment in a line: 5 µl immobilized streptavidin slurry, 1 h.
Assay [48] concerns the target trypsin (active, immobilized on beads, or in solution) (UniProt P00760). The experiment in a line: trypsin beads, TBS pH 7.5, pH 2.2 elution.
In assay [49] the target is M13MB48 phage (BPTI fused to the mature M13 gene VIII major coat protein) (Bos taurus / phage M13). The experiment in a line: titer after normal rabbit IgG; batch 5.
Assay [50] has the same target. The experiment in a line: titer after normal rabbit IgG; batch 4.
In assay [51] the target is M13mp18 phage (wild type, non-display phage). The experiment in a line: titer after normal rabbit IgG + protein A beads.
The target is the same in assay [52]. The assay is described as follows: titer after normal rabbit IgG.
Assay [53] deals with M13MB48 phage (BPTI fused to the mature M13 gene VIII major coat protein) (Bos taurus / phage M13). The assay is described as follows: titer after normal rabbit IgG + protein A beads; batch 5.
Assay [54] has the same target. The experiment in a line: titer after normal rabbit IgG + protein A beads; batch 4.

human Cathepsin G (immobilized on agarose beads) (human), sequence (P08311 21-244 limits assumed): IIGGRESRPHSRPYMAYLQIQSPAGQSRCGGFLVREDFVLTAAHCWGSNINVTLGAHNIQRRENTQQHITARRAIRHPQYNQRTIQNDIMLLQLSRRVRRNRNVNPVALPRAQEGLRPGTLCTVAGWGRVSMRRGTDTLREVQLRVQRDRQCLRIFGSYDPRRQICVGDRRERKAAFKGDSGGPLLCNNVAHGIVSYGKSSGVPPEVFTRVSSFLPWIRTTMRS
trypsin (active, immobilized on beads, or in solution), sequence (P00760 24-246): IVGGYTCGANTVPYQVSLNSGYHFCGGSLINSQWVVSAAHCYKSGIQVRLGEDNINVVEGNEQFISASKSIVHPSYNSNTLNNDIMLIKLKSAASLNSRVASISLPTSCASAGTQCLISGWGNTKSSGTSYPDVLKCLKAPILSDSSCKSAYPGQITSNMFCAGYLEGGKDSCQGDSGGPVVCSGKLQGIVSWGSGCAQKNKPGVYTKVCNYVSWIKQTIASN
streptavidin (agarose-immobilized), sequence (P22629 37-163 limits assumed): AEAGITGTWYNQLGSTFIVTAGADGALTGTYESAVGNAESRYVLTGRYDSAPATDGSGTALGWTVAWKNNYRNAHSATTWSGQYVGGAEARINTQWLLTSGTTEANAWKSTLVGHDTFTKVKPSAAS
human neutrophil elastase (immobilized on Reacti-Gel agarose beads, or free) (human), sequence (P08246 30-247 limits assumed): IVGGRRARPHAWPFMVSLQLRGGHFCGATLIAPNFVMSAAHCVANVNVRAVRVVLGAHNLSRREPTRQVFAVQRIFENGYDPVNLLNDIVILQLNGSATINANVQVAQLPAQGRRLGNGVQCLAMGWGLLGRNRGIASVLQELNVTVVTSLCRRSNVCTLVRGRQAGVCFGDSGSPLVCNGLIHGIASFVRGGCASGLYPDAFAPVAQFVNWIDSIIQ

In [1], “BPTI(K15V,R17L)-III MA phage (designed binder)” showed a pH of elution peak of 4.25 pH.
With “BPTI-III MK phage (M13 phage displaying mature BPTI fused to the gene III protein)”, the results for the percent of total phage recovered in elution buffer in assay [2], in assay [7] and in [12] were 20%, 50% and 5%, respectively. Besides, the binding relative to M13mp18 in [3] amounted to 40 fold. The percent residual titer stood at 40% in [4], 40% in assay [5] and 30% in [11]. In addition, the results for the relative binding (to M13MP18) in assay [6] and in [15] were 2000 fold and 5000 fold, respectively. The percentage of input phage recovered (all fractions) in assay [8] is 0.008%. The eluted phage, % of input amounted to 0.005% in assay [9] and 1% in assay [10]. Also, the % of input phage came to 0.002% in assay [13] and 0.001% in [14]. In addition, the total pfu in fraction amounted to 50000 pfu in assay [13] and 30000 pfu in assay [14]. In assay [16], the % of input phage recovered was 0.005%.
As to “M13.3X7 phage (BPTI:VIII fusion with one EGGGS linker)”, the eluted phage, % of input in [9] stood at 0.001%.
“M13.3X11 phage (BPTI:VIII fusion with three linker units)”: the relative binding (to M13MP18) in assay [17] came out at 92 fold; in [6], 1600 fold; in assay [20] it was 6.7 fold; in assay [15], 1200 fold. Besides, the eluted phage, % of input in assay [18] was determined as 0.27%; in assay [9], 0.002%; in [10], 0.8%; in assay [19], 9.2%.
On to “M13MB48 phage (BPTI fused to the mature M13 gene VIII major coat protein)”, for which, in assay [21], the % of input pfu is 58%. Moreover, the eluted phage, % of input in assay [22] amounted to 11.2%; in assay [9] it was 0.009%; in assay [10], 0.13%. For the same substance, the % of input pfu post incubation was 98% in assay [23] and 58% in [25]. The values for the relative binding (to M13MP18) in [6] and in assay [20] were 260 fold and 30 fold, respectively. Moreover, the binding relative to M13MP18 in assay [24] was found to be 56 fold.
In the case of “MA-ITI phage (M13 phage displaying human ITI domain I fused to the gene III protein) (from UniProt P02760 227-281)”, the fraction of input in assay [26] was determined as 1.3e-05; in assay [27] it was 5.9e-07; in assay [28], 7.8e-07; in assay [29], 5e-06; in [30] it was 7e-07; in assay [31] it was 2.4e-06. Also, the fraction of input in [33] was found to be 2.6e-06; in assay [34], 9.6e-07; in [35] it was 1.5e-05; in assay [36], 9.6e-07; in assay [37], 1.5e-06. Moreover, the fraction of input, SUM of pH elution fractions in assay [32] amounted to 3e-05. In addition, in [32], the total pfu, SUM of pH elution fractions turned out to be 1.4e+07 pfu. In addition, in [35], the total pfu in sample stood at 7.1e+06 pfu.
For the substance “MK phage (M13-MB1/2-delta-NarI with kanamycin-resistance gene; no displayed domain)”, the percent residual titer stood at 97% in assay [38]; 96% in [40]; 99% in assay [4]; 111% in assay [5]; 96% in assay [41]; 106% in assay [42]. Further, the percent residual titer in assay [43] was 110%; in [44], 95%; in [45], 98%; in assay [11], 93%; in assay [46] it was 103%; in [47], 106%. In addition, the % of input phage recovered was 0.00028% in assay [39] and 0.00034% in assay [48]. For the same substance, the results for the total pfu recovered in elution buffer in assay [39] and in [48] were 1.35e+06 pfu and 1.48e+06 pfu, respectively.
On to “normal rabbit serum / IgG purified from normal rabbit pre-immune serum (antibody)”, for which the % of input pfu was 105% in [49]; 125% in [50]; 88% in assay [51]; 104% in assay [52]; 110% in [53]; 121% in assay [54].
